This note sets out measurements from article PMC9411612, “Single residue modulators of amyloid formation in the N-terminal P1-region of α-synuclein” (Nature Communications, 2022).

As a reminder, the stoichiometry N is a count of units in the complex or per binding partner.

The target in test [1] is T1, ΔP1 αSyn (alpha-synuclein with residues 36-42 deleted) (UniProt P37840 1-140, deletion of the seven-residue P1 sequence 36GVLYVGS42 (ΔP1)). The test is described as follows: native MS; native nESI-MS; 20 µM protein, αSyn:P1-peptide 1:10, 20 mM ammonium acetate pH 7.5. The conditions noted are these: both partners purified.
Test [2] concerns the target T2, wild-type alpha-synuclein (WT αSyn) (UniProt P37840 1-140). The description is as above. Particulars: both partners purified.
In test [3] the target is T1, ΔP1 αSyn (alpha-synuclein with residues …). The test can be described thus: cell-based or functional assay.
For test [4] the target is unchanged. The test is described as follows: NMR paramagnetic relaxation enhancement (PRE); 100 µM 15N-labelled protein with 100 µM 14N MTSL-labelled peptide; diamagnetic spectra after 1 mM ascorbic acid; 20 mM Tris-HCl, pH 7.5, 200 mM NaCl, 15 °C. The conditions noted are these: both partners purified.
Test [5] addresses T2, wild-type alpha-synuclein (WT αSyn). The description is as above. The conditions noted are these: both partners purified.

B1: P1-peptide (Ac-KTKE-GVLYVGS-KTKE-NH2) (peptide)
peptide: Ac-KTKEGVLYVGSKTKE-NH2
notes: also called peptide-P1; peptide P1; source: synthetic peptide, bought: Severn Biotech Ltd
In the case of B1, the “stoichiometry N” value in test [1] and in test [2] was 1 throughout. Also, in test [3], the “t50 of amyloid formation (ThT fluorescence), 100 µM ΔP1 with P1-peptide in 10-fold molar excess, pH 7.5 (aggregation begins within 110 h at equimolar ratio)” value was determined as 14.4 h.

B2: MTSL-labelled Cys-P1-peptide (Ac-C-KTKE-GVLYVGS-KTKE-NH2) (peptide)
peptide: CKTKEGVLYVGSKTKE
modifications: N-terminal acetylation; MTSL on the thiol group of the introduced N-terminal cysteine; C-terminal amidation
notes: cysteine introduced at the N-terminus for MTSL labelling; observed mass 1995.07 Da after labelling; also called MTSL-labelled peptide-P1; 14N P1-peptide N-terminally labelled with MTSL; source: synthetic peptide, bought: Severn Biotech Ltd; labelled with MTSL, reverse phase HPLC
With B2, the binding result in test [4] and in test [5] was “binds” in each case.
